What was measured:
[1] = molecular target: T1, heme oxygenase-1 (hHO-1), E. coli expressed (Homo sapiens, UniProt P09601 P09601:1-288); assay: EMSA; specificity control; conditions: label: 32P 5'
T1 sequence: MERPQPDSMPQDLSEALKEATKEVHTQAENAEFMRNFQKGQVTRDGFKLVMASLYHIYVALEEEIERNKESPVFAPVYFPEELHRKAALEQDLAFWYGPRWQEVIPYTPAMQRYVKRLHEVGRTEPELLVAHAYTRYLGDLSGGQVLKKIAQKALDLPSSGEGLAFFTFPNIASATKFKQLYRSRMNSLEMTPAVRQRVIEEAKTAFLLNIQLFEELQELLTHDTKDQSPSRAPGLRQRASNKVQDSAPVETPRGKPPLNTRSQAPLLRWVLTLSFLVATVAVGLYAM

hBVR K143A = molecular target: T2, hBVR K143A (Homo sapiens, UniProt P53004 SEQ:1-296, K143A); assay: EMSA; background signal only; conditions: tags: rabbit reticulocyte lysate; chain copies: 2; label: 32P 5'
T2 sequence: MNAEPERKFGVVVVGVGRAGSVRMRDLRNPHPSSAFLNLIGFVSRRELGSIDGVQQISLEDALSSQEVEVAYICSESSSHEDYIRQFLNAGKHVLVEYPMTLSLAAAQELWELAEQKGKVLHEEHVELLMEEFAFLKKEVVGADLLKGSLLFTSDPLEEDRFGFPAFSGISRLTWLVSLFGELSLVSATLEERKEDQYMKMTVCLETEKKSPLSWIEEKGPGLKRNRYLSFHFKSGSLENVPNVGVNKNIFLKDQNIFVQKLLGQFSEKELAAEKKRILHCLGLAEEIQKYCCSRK
Method: (§1) As with native gel analysis, in vitro translated proteins were assayed for DNA binding immediately after synthesis. 1 μl of translated material was added to 5000-500,000 cpm of [³²P]-labeled DNA fragment representing approximately 2-3 ng of DNA. 0.1 μg of poly (dI•dC) in 10 μl of DNA binding buffer was added to the labeled DNA. After incubating samples for 20 min at room temperature, 5 μl loading buffer was added. The samples were resolved on 12% native polyacrylamide gel with 35 m Amp at 4° C. The gels were processed as described above. Dried gels were put on two pieces of film separated by a piece of paper. Autoradiography was done at −70° C. for different time periods.
(§2) For this set of experiments, the [³⁵S] methionine-labeled mutant BVR proteins were generated by in vitro translation and assayed on a 12% native gel for detection of the ˜69 kDa protein band and analysis of DNA for complex formation. The 100-mer DNA fragment with two AP-1 sites or without an AP-1 site were used. On the native gel the high molecular weight band was not detected with the mutated proteins.

hBVR L150A = molecular target: T3, hBVR L150A (Homo sapiens, UniProt P53004 SEQ:1-296, L150A); assay: EMSA; background signal only; conditions: tags: rabbit reticulocyte lysate; chain copies: 2; label: 32P 5'
T3 sequence: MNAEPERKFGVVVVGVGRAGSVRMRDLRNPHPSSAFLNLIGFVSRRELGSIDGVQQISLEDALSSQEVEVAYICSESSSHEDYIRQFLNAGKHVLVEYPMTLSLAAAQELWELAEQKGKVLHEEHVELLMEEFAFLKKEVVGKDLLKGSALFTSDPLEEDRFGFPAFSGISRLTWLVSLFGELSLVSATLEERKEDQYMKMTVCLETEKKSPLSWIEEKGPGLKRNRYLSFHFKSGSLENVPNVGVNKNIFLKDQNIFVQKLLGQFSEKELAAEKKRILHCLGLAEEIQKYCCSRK
Method: as §1, §2

hBVR L157A = molecular target: T4, hBVR L157A (Homo sapiens, UniProt P53004 SEQ:1-296, L157A); assay: EMSA; background signal only; conditions: tags: rabbit reticulocyte lysate; chain copies: 2; label: 32P 5'
T4 sequence: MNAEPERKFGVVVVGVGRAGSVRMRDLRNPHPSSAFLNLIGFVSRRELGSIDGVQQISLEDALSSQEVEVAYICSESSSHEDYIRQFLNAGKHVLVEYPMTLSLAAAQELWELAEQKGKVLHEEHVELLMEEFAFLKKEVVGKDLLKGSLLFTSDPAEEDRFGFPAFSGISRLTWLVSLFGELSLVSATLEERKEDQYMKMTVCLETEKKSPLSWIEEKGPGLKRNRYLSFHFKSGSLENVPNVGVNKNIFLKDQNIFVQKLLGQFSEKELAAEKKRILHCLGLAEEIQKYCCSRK
Method: as §1, §2

Measured: binding result

B1: 100-mer, zero AP-1 sites (OL.625/OL.626) (dsDNA)
DNA 1: TCCTCAGCTGCTTTTATGCGATCCTCTGGTTGGGAGGGGTGATTAGCAGACAAAGGGAAGACAGATTTTGCGATCCTCCCCTCTGTTCCCTCTGCCTCAG
DNA 2: CTGAGGCAGAGGGAACAGAGGGGAGGATCGCAAAATCTGTCTTCCCTTTGTCTGCTAATCACCCCTCCCAACCAGAGGATCGCATAAAAGCAGCTGAGGA
no binding: [1] | hBVR K143A | hBVR L150A | hBVR L157A

Source: US20050119205A1, “Methods of modulating heme oxygenase-1 expression and treating heme oxygenase-1 mediated conditions” (published 2005)
